B1: DASH complex subunit DAM1 (Saccharomyces cerevisiae), P53267 (parent)
chain: MSEDKAKLGTTRSATEYRLSIGSAPTSRRSSMGESSSLMKFADQEGLTSSVGEYNENTIQQLLLPKIRELSDSIITLDSNFTRLNFIHESLADLNESLGSLLYGIMSNSWCVEFSQAPHDIQDDLIAIKQLKSLEDEKNNLVMELSNMERGIKRKKDEQGENDLAKASQNKQFNQPLFPSSQVRKYRSYDNRDKRKPSKIGNNLQVENEEDYEDDTSSEASFVLNPTNIGMSKSSQGHVTKTTRLNNNTNSKLRRKSILHTIRNSIASGADLPIENDNVVNLGDLHPNNRISLGSGAARVVNGPVTKNRNSMFSGRAERKPTESRHSVAKKTEKKINTRPPFR
partner: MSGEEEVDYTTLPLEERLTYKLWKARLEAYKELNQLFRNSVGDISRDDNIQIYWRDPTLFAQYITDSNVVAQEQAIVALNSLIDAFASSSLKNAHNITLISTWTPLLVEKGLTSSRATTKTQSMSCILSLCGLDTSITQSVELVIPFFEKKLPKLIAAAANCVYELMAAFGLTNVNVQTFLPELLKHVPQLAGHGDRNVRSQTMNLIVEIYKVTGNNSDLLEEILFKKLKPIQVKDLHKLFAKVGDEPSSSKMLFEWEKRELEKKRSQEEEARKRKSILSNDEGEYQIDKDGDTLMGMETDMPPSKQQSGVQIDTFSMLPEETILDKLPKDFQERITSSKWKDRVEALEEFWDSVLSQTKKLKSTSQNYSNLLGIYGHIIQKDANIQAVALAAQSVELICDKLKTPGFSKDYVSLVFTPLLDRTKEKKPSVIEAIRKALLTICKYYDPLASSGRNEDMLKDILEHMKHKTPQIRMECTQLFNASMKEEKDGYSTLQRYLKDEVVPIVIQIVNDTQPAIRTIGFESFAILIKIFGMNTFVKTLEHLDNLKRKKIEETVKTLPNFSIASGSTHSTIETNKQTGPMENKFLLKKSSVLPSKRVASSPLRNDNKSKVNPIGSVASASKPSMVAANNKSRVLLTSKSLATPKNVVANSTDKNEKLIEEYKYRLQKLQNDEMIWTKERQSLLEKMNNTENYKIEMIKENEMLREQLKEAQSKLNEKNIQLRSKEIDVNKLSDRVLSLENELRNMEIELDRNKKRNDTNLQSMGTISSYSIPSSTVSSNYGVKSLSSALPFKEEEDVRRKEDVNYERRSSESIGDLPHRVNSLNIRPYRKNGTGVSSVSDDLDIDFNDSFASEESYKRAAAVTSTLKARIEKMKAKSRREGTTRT
B2: DASH complex subunit DAM1 (Saccharomyces cerevisiae), P53267 (parent)
chain: B1 chain

In the first experiment the parent is B1. To be noted: with stu2_yeast STU2, P46675.
Consider MSEDKAKLGTTRSATEYRLSIGSAPTSRRSSMGESSSLMKFADQEGLTSSVGEYNENTIQQLLLPKIRELSDSIITLDSNFTRLNFIHESLADLNESLGSLLYGIMSNSWCVEFSQAPHDIQDDLIAIKQLKSLEDEKNNLVMELSNMERGIKRKKDEQGENDLAKASQNKQFNQPLFPSSQVRKYRSYDNRDKRKPSKIGNNLQVENEEDYEDDTSSEASFVLNPTNIGMSKSSQGHVTKTTRLNNNTNSKLRRKDILHTIRNDIASGADLPIENDNVVNLGDLHPNNRIDLGSGAARVVNGPVTKNRNSMFSGRAERKPTESRHDVAKKTEKKINTRPPFR [S257D;S265D;S292D;S327D], for which the “effect of a mutation on the interaction” value was “disrupting interaction strength”.

In the next experiment the parent is B2. The note with it: with ndc80_yeast NDC80, P40460.
Chain of ndc80_yeast NDC80, P40460 (P40460 whole entry): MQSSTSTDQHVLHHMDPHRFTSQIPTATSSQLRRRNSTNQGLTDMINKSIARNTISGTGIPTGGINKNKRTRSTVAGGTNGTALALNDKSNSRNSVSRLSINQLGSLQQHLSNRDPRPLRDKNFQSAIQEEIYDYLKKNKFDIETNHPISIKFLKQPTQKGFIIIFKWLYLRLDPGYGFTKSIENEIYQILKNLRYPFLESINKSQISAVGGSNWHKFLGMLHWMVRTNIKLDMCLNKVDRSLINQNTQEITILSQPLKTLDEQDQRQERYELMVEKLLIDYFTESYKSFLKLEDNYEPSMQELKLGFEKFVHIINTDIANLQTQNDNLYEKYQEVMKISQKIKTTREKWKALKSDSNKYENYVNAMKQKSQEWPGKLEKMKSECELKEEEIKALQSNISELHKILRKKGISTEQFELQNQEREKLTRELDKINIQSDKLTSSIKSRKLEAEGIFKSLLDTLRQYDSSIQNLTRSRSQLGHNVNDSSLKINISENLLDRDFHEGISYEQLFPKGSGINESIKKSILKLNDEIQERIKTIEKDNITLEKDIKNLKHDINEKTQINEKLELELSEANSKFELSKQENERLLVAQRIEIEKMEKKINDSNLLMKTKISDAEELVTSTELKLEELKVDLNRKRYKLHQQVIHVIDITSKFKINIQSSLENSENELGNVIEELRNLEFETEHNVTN
MSEDKAKLGTTRSATEYRLSIGSAPTSRRSSMGESSSLMKFADQEGLTSSVGEYNENTIQQLLLPKIRELSDSIITLDSNFTRLNFIHESLADLNESLGSLLYGIMSNSWCVEFSQAPHDIQDDLIAIKQLKSLEDEKNNLVMELSNMERGIKRKKDEQGENDLAKASQNKQFNQPLFPSSQVRKYRSYDNRDKRKPSKIGNNLQVENEEDYEDDTSSEASFVLNPTNIGMSKSSQGHVTKTTRLNNNTNSKLRRKDILHTIRNDIASGADLPIENDNVVNLGDLHPNNRIDLGSGAARVVNGPVTKNRNSMFSGRAERKPTESRHDVAKKTEKKINTRPPFR [S257D;S265D;S292D;S327D]: the “effect of a mutation on the interaction” value was “decreasing interaction strength”.

The values above are taken from IntAct's records for PubMed 25751138.
